Results from the supplement of paper PMC9170038.

Test system: MS2 coat protein
Experiment: apparent KD of MS2 coat protein; designed switch direction (-1 OFF switch, 1 ON switch): -1; higher = weaker reporter binding
Summary of the method: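 Apparent KD, taken as the median over clusters for each design, was obtained by curve-fitting normalised cluster fluorescence. Designed RNA switches had been transcribed on Illumina chips by stalled E. coli RNA polymerase and titrated with SNAP-549-labelled MS2 coat protein, doubling from 0.7 or 1.5 nM to 3 µM.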

[1] = input ligand: microRNA oligo, concentration not stated
[2] = Eterna round: R95, input ligand: microRNA oligo, concentration not stated
[3] = Eterna round: R95, input ligand: FMN 200 uM
[4] = Eterna round: R95, input ligand: none

Row | Sequence | apparent KD of MS2 coat protein (input ligand: FMN 200 uM) | apparent KD of MS2 coat protein (input ligand: none) | apparent KD of MS2 coat protein [1] | apparent KD of MS2 coat protein [2] | apparent KD of MS2 coat protein [3] | apparent KD of MS2 coat protein [4]
1 | UUCCUACUUGAGGAUCACCCAAGUCAGGAUAUCCAUAGCCGACACUCUUUUCGGAACGGGAGAAGGGACUUGGU [Tiisatbi] (Eterna round: R97, puzzle: Exclusion 1) | 0.0975 µM | 0.0372 µM | – | – | – | –
2 | GGUGAAGCAGGAUAUGUAUCGAUAUACAUGAGGAUCACCCAUGUCAUGUACAAAUUGCAUAUAGAAGGGCUUCACC [Exclusion 5 (FMN-MS2 slide v.4)] (Eterna round: R97, puzzle: Exclusion 5) | 0.168 µM | 0.0474 µM | – | – | – | –
3 | ACAUGAGGAUCACCCAUGUCCGGCUGGUCCGUCUCGGCUGUCGAGGAUAUAGCUCGGUGUCCGCGCUAGAAGGCGGGAGCCGGC [Aenatbe mod 83] (Eterna round: R96, puzzle: Exclusion NG 3) | 0.0915 µM | 0.0734 µM | 0.0647 µM | – | – | –
4 | CACAUGGGAACAUGAGGAUCACCCAUGUGAUAGAAAGGUAUGGAGGAUAUCAUACCAUCGCCGUGUGAGAAGGUCAGGCCAACA [Eternabot solution 46] (Eterna round: R96, puzzle: Exclusion NG 3) | 0.409 µM | 0.388 µM | 0.151 µM | – | – | –
5 | UAUAUAUAGUAAGGAUAUGUAUAUAUUUUACAAACAGAAGGUACUGACAUGAGGAUCACCCAUGUUUUAGUGUGGGCAUGUAGA [JMF's solution 68] (Eterna round: R96, puzzle: Exclusion NG 1) | – | – | 0.0433 µM | – | – | –
6 | CCAUGGGAGCGAGGAUAUAGCCCAUGGGAAGAACUAGAAGGCGCAGACAUGAGGAUCACCCAUGUGUUCAUGAGGAGGUGGACA (Eterna round: R96, puzzle: Exclusion NG 1) | 0.153 µM | 0.121 µM | 0.0826 µM | – | – | –
7 | AUAAAUCAUGUAGGAUAUGCGUGGCGAAGCUAUGCAGAAGGACAUGAGGAUCACCCAUGUGCUUGCGUCCGCGUACGGAUGCAA [Mat - Exclusion NG 1 - Mod of JL - D69] (Eterna round: R96, puzzle: Exclusion NG 1) | 0.0652 µM | 0.231 µM | 0.155 µM | – | – | –
8 | ACGAAACAUGAGGAUCACCCAUGUGAGGAUAUGUAAAUACUAGACAAAUAACAGAAAAACAGAAGGCACUCAGA [JR_Exclusion1_Sub003] (puzzle: Exclusion 1) | – | – | – | 0.022 µM | – | –
9 | UGCAGACGAGGAUAUAGAUUUAAGUACAUGAGGAUCACCCAUGUACAUAUGUAUUUAGAUUUAGAAGGCGUCUGCU [E5/16-A4] (Eterna round: R97, puzzle: Exclusion 5) | 0.0285 µM | 0.0298 µM | – | – | – | –
10 | CUUCUGUGAGGAUAUUAGUAGUAAAUGAAUAAAAUUAUUACUGAGAAGGCACAUGAGGAUCACCCAUGUUCCUC [Mat - Exclusion 4 - Eli Mod - D12] (Eterna round: R97, puzzle: Exclusion 4) | 0.386 µM | 0.0363 µM | – | – | – | –
11 | GGAGGCCAGUAAGGAUAUUCAUGGUAGAUUCAUGAAGAAGGUACGGAGUGUCCUGACAUGAGGAUCACCCAUGUAGCCUCCAAG [Betien] (Eterna round: R96, puzzle: Exclusion NG 1) | 0.0764 µM | 0.0343 µM | 0.0251 µM | – | – | –
12 | AGCACGACUGCAGGAUAUUCCGCAGUUGAUGCGGGAGAAGGGCAGGGCAGCACUUGAGGAUCACCCAAGUGACCGUGUUGCCAA [Mutated MS2 EX1.7] (Eterna round: R96, puzzle: Exclusion NG 1) | 0.0358 µM | 0.0251 µM | 0.0172 µM | – | – | –
13 | UAUAUAUAGUAAGGAUAUGUAUCUAUUUUAUAAACAGAAGGUACUGACAUGAGGAUCACCCAUGUUUUAGUGUGGGCAUGUAGA [JMF's solution 8] (Eterna round: R96, puzzle: Exclusion NG 1) | – | – | 0.0716 µM | – | – | –
14 | GAUUAUGCGAGCUUUAGGGACAUGAGGAUCACCCAUGUUCGUCUUAUUGGUCUGAAUGCACUGACAUACCUAAAUCU [JMF 76] (puzzle: Sensor v3, turn-off variant 1) | – | – | – | 0.0242 µM | 0.0187 µM | 0.0175 µM
15 | AUUGUGUUAGGAUAUAACAACUACUAAUAAAUUAGUAGUUGUUAGAAGGAACAUGAGGAUCACCCAUGUAUGAU [-21.1, -20.3 kcal, A 38%] (Eterna round: R97, puzzle: Exclusion 4) | 0.06 µM | 0.0294 µM | – | – | – | –
16 | AGAUAGUGGUGAGGAUAUCAGAAUAGAAAGAAAUGAGAAGGCGCACAUGAGGAUCACCCAUGUGAGGUCUUGAGACUACAUGGU [Prohibition 39 - Jieux - Exclusion NG 1] (Eterna round: R96, puzzle: Exclusion NG 1) | – | – | 0.0157 µM | – | – | –
17 | UAUUACAAGCGAAGAUCCCACAUGAGGAUCACCCAUGUGCUCGUCUUAUAAGGUACUGUGACGAAAGUCACGGUACC [Sensor 3, v1 - 91 v16] (Eterna round: R97, puzzle: Sensor, turn-off variant 1) | 0.0327 µM | 0.0311 µM | – | – | – | –

Row | Sequence | apparent KD of MS2 coat protein (input ligand: FMN 200 uM) | apparent KD of MS2 coat protein (input ligand: none) | apparent KD of MS2 coat protein [1] | apparent KD of MS2 coat protein [2] | apparent KD of MS2 coat protein [3] | apparent KD of MS2 coat protein [4]
18 | CCGCAAAUGUAGGAUAUCGUAUCGGAUACGAUACGAGAAGGGCAUACAUGAGGAUCACCCAUGUGUCCUAGCGG [Fiskers Ex 6 - 44] (puzzle: Exclusion 6) | – | – | – | 0.012 µM | – | –
19 | GACUCGCACUGAGGAUAUCGAAACGAUACGUCGCGAGAAGGCAGAGCGAACAUGAGGAUCACCCAUGUGGGUUCGCCUGAUGUA [Geedinsoma] (Eterna round: R96, puzzle: Exclusion NG 1) | 0.0232 µM | 0.0167 µM | 0.0129 µM | – | – | –
20 | GUCAGCUCGUGAGGAUAUAUAUUAACAUGAGGAUCACCCAUGUAAGAUCAGCUUCGGCAGUUAAUAUAGAAGGCACGAGCUGAC [ENG2/14-A1] (Eterna round: R96, puzzle: Exclusion NG 2) | – | – | 0.137 µM | – | – | –
21 | UUUAAUUUUUUUUUUUUACAAGCUUUUUGCUCGUCUUAUACAUGAGGAUCACCCAUGUAGAUGGGAGGUAAAUUAUC [JMF 75] (puzzle: Sensor v3, turn-off variant 2) | – | – | – | 0.16 µM | 0.0291 µM | 0.0257 µM
22 | AGCUGUGGCCGAGGAUAUCCACAUGAGGAUCACCCAUGUUGAUACGCCGUUAAAGGCGAUAUAAGGGAGAAGGCGGUCUCAGCA [Eli eng2 - 051] (Eterna round: R96, puzzle: Exclusion NG 2) | 0.0125 µM | 0.00926 µM | 0.00718 µM | – | – | –
23 | AACAGUCUAGAGGAUAUGCUGGAUGAAUAUCUGGCAGAAGGCUGGACAUGAGGAUCACCCAUGUAAAUACUACC [Omei Ex6 A1c] (Eterna round: R97, puzzle: Exclusion 6) | 0.0969 µM | 0.0365 µM | – | – | – | –
24 | CACGUGAUUGGGCUCAUUAACAUGAGGAUCACCCAUGUGUGUGUUUUAGGAUGCCCACAAGCUUUUUCGCCGUCUAG [Eternabot (L1) Solution 3] (Eterna round: R97, puzzle: Sensor, turn-off variant 1) | 0.051 µM | 0.0648 µM | – | – | – | –
25 | GCCGGAGCAGGAUAUCUAAUAUAUCACAUGAGGAUCACCCAUGUCCAGCGAAAGCUGGAGGGAGAAGGGCUCUGGC [Fiskers Ex 5 - 22] (Eterna round: R96, puzzle: Exclusion 5) | 0.047 µM | 0.143 µM | 0.0991 µM | – | – | –
26 | CAUGUGUGAGGAUAUCCUAGACUAAUGGAGACGCUACCGUGGGAGAAGGUACAUGAGGAUCACCCAUGUGGACC [Eternabot (L1) Solution 88] (Eterna round: R97, puzzle: Exclusion 4) | 0.0327 µM | 0.0322 µM | – | – | – | –
27 | CUCGUGCAGCUUUGCUGUACGAGUACAUGAGGAUCACCCAUGUAGGAUAUGGUACGCUUUGCGUGCCAGAAGGACGUGCGUUAG [JL EXNG3 1.41] (Eterna round: R96, puzzle: Exclusion NG 3) | 0.0786 µM | 0.0289 µM | 0.0259 µM | – | – | –
28 | UAAUACAAGCAAAGAUCCUACAUGAGGAUCACCCAUGUGUUCGUCUUAUAAAGUACUAUCACGAAAGUGAUAGUACA [Mat - Sensor v3 - turn-off var 1 - Eli Mod - D79] (puzzle: Sensor v3, turn-off variant 1) | – | – | – | 0.0123 µM | 0.0816 µM | 0.11 µM
29 | CCGCAAAUGCAGGAUAUCGUAUCGGAAACGAUACGAGAAGGGUAAACAUGAGGAUCACCCAUGUUCCUUAACGG [Mat - Exclusion 6 - Eli Mod - D98] (puzzle: Exclusion 6) | – | – | – | 0.0163 µM | – | –
30 | CCCUGACAUGAGGAUCACCCAUGUUAGGAUAUAACAUUUGACACGACAGUGUGAAGUGUUAGAAGGGAUAUGGG [-28.4, -26.7 kcal, A 31%] (Eterna round: R97, puzzle: Exclusion 1) | 0.0362 µM | 0.0221 µM | – | – | – | –
31 | AAAAGCAAGUAAAGAUUCUACAUGAGGAUCACCCAUGUGCUCGUCUUAUAAAGUACUAUCACGAAAGUGAUAGUACA [Sensor 3, v1 - 43] (puzzle: Sensor v3, turn-off variant 1) | – | – | – | 0.124 µM | 0.0194 µM | 0.0176 µM
32 | GUGUGCUGAGGAUAUACAUAGGAAUAGAAUAGAAUAGAAUGACAUGAGGAUCACCCAUGUAGAAGGCAGAGUGU [Excluse me!! 13 - Jieux - Exclusion 2] (puzzle: Exclusion 2) | – | – | – | 0.0214 µM | 0.0396 µM | 0.0248 µM
33 | GUUUUCAGACGGAGAUCCUACAUGAGGAUCACCCAUGUCUCUCUUGUUCCUUGCUCGUCUUUUCCUCCUCUGUUCUC [Elimod 33 - Jieux - Sensor, turn-off variant 1] (Eterna round: R97, puzzle: Sensor, turn-off variant 1) | 0.657 µM | 0.847 µM | – | – | – | –
